Measured values from publication PMC6440994, “Human RAD51 paralogue SWSAP1 fosters RAD51 filament by regulating the anti-recombinase FIGNL1 AAA+ ATPase” (Nature Communications, 2019).

Target: T1, RAD51 (protein of the in vitro assays) (UniProt Q06609 1-339)
T1 sequence (looked up): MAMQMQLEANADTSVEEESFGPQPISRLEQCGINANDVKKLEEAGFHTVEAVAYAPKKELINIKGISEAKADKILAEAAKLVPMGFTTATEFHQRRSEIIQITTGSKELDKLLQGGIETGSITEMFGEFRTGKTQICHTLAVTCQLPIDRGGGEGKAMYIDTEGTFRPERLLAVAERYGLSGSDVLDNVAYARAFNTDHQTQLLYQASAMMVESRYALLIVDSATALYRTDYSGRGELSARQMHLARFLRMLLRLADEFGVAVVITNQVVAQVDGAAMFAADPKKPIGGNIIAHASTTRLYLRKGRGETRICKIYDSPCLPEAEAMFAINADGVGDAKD
Assay: cell-based or functional assay

B1: FIGNL1ΔN-EE (F295E, A298E) (domain or fragment, human, UniProt Q6PIW4 285-674, looked up)
chain: GPKEDSSLPTEKTEKEQLWVDQQKKYHQPQRASGSSYGGVKKSLGASRSRGILGKFVPPIPKQDGGEQNGGMQCKPYGAGPTEPAHPVDERLKNLEPKMIELIMNEIMDHGPPVNWEDIAGVEFAKATIKEIVVWPMLRPDIFTGLRGPPKGILLFGPPGTGKTLIGKCIASQSGATFFSISASSLTSKWVGEGEKMVRALFAVARCQQPAVIFIDEIDSLLSQRGDGEHESSRRIKTEFLVQLDGATTSSEDRILVVGATNRPQEIDEAARRRLVKRLYIPLPEASARKQIVINLMSKEQCCLSEEEIEQIVQQSDAFSGADMTQLCREASLGPIRSLQTADIATITPDQVRPIAYIDFENAFRTVRPSVSPKDLELYENWNKTFGCGK
- activity to dissociate RAD51 from ssDNA relative to wild-type FIGNL1ΔN (0.2 µM protein): 3.2 fold decrease
